In patent publication US20120238493A1 (INDIANA UNIVERSITY RESEARCH AND TECHNOLOGY, published 2012):
Where no end group is shown, it is not given here. [ ]: non-standard residue; d: D form. Aib = CC(C)(N)C(=O)O

How the values were obtained:
Experiment in all cases: cell-based or functional assay
GIP receptor = molecular target: T1, GIP receptor (UniProt P48546 22-466, limits assumed)
T1 sequence (looked up): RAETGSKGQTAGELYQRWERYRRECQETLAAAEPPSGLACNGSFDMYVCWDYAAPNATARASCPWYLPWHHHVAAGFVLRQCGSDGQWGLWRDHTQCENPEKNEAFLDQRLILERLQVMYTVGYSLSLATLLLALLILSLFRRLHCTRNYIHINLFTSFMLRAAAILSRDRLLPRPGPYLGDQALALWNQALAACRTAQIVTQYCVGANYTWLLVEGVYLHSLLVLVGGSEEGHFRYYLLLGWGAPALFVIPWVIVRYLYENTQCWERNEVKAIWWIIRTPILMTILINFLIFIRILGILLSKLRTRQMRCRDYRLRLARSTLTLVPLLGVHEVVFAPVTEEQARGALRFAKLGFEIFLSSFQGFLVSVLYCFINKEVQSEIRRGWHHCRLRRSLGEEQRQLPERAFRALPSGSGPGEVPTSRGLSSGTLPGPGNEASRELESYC

GLP-1 receptor = GLP-1 receptor (UniProt P43220 24-463, limits assumed)
Sequence of GLP-1 receptor (P43220 24-463 limits assumed): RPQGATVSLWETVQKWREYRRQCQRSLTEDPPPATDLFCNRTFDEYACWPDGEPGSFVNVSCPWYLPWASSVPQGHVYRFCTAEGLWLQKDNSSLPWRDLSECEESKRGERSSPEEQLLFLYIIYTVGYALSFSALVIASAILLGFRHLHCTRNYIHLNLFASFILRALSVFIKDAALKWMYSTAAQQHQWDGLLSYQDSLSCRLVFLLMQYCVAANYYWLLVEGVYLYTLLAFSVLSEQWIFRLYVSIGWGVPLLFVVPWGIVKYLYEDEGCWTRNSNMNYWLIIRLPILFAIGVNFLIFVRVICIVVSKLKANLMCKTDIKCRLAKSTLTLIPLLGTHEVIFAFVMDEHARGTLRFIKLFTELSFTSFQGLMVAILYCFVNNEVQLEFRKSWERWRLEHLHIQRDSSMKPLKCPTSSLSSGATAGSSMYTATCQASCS

glucagon receptor = glucagon receptor (UniProt P47871 26-477, limits assumed)
Sequence of glucagon receptor (P47871 26-477 limits assumed): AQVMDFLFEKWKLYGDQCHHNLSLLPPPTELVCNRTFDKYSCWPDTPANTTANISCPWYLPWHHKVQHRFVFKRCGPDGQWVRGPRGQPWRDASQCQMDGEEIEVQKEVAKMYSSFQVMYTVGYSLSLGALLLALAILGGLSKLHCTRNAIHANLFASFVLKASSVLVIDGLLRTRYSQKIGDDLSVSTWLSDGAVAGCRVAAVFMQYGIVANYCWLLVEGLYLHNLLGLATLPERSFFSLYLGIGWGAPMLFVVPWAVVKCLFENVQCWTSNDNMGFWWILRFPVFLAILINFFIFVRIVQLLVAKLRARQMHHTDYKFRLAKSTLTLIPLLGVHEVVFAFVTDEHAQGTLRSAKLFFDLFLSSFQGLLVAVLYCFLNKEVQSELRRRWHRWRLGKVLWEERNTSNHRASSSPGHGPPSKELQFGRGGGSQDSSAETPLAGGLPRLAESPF

B1: peptide of SEQ ID NO: 230 (peptide)
peptide: H[Aib]QGTFTSDYSIYLDEKRAKEFVCWLLAGGPSSGAPPPSK-NH2
modifications: N-terminus assumed
SMILES: CC[C@H](C)[C@H](NC(=O)[C@H](CO)NC(=O)[C@H](Cc1ccc(O)cc1)NC(=O)[C@H](CC(=O)O)NC(=O)[C@H](CO)NC(=O)[C@@H](NC(=O)[C@H](Cc1ccccc1)NC(=O)[C@@H](NC(=O)CNC(=O)[C@H](CCC(N)=O)NC(=O)C(C)(C)NC(=O)[C@@H](N)Cc1c[nH]cn1)[C@@H](C)O)[C@@H](C)O)C(=O)N[C@@H](Cc1ccc(O)cc1)C(=O)N[C@@H](CC(C)C)C(=O)N[C@@H](CC(=O)O)C(=O)N[C@@H](CCC(=O)O)C(=O)N[C@@H](CCCCN)C(=O)N[C@@H](CCCNC(=N)N)C(=O)N[C@@H](C)C(=O)N[C@@H](CCCCN)C(=O)N[C@@H](CCC(=O)O)C(=O)N[C@@H](Cc1ccccc1)C(=O)N[C@H](C(=O)N[C@@H](CS)C(=O)N[C@@H](Cc1c[nH]c2ccccc12)C(=O)N[C@@H](CC(C)C)C(=O)N[C@@H](CC(C)C)C(=O)N[C@@H](C)C(=O)NCC(=O)NCC(=O)N1CCC[C@H]1C(=O)N[C@@H](CO)C(=O)N[C@@H](CO)C(=O)NCC(=O)N[C@@H](C)C(=O)N1CCC[C@H]1C(=O)N1CCC[C@H]1C(=O)N1CCC[C@H]1C(=O)N[C@@H](CO)C(=O)N[C@@H](CCCCN)C(N)=O)C(C)C
GIP receptor
  EC50 (cAMP reporter): 164 pM
GLP-1 receptor
  EC50 (cAMP reporter): 222 pM
Glucagon receptor
  EC50 (cAMP reporter): 1640 pM
